Results: patent publication US20050130227A1 (MUNIN, published 2005)

T1: nuclear membrane protein nucleoporin p62 (mouse, UniProt Q63850 2-526)
T1 construct: Negative control protein; detected with anti-Nucleoporin p62 monoclonal clone 53; also called nuclear envelope protein Nucleoporin p62
T1 sequence (looked up): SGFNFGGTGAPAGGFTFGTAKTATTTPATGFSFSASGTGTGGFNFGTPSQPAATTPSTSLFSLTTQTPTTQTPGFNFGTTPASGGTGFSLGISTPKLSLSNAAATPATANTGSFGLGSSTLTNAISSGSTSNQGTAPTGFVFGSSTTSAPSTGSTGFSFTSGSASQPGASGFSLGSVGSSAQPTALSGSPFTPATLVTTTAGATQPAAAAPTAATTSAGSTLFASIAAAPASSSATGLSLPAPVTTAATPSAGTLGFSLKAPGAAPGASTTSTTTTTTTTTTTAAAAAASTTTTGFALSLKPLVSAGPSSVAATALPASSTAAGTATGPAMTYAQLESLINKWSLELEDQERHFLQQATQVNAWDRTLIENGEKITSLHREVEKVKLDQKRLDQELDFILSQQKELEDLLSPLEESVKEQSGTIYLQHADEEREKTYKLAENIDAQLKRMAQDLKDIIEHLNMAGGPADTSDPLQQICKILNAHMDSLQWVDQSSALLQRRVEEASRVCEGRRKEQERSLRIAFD


Legend:
[1] = biological target: T1, nuclear membrane protein nucleoporin p62; assay: GST pull-down from mouse C1-1D nuclear extract, Western blot
Source text: (A) Mouse C1-1D cell nuclear extract proteins were allowed to bind to bead immobilized GST-mGPBP fusion proteins. […] The antibodies used to probe these blots were raised against TBP, The C-terminal domain of RNA polymerase II (RNA pol II CTD), Transcription Fraction IIB (TFIIB), Transcription Fraction IIF RAP30 subunit (TFIIF RAP30), P300/CAAT Binding Protein (CBP), and the negative control antibodies against the nuclear envelope protein Nucleoporin p62. The estimated molecular weight of proteins in each band (in Kd) based on electrophoretic mobility in comparison to protein size markers were shown on the right by arrows. (B) In vivo binding of mGPBP was determined by immuno-coprecipitation analyses of cell lysates. […] The antibodies raised against TBP, RNA pol II CTD, TFIIB, CBP, or HA-tag were used as probes as indicated in each blot. The estimated molecular weight of proteins in each band (in Kd) based on electrophoretic mobility in comparison to protein size markers are shown on by arrows. The migration location of the HA-mGPBP fusion protein is also shown on the right of the panel with an arrow.
Nuclear extracts were prepared as previously described (Berger and Kimmel, 1987) with minor modifications. Mouse C1-1D Cells were collected and washed with 10 volumes of PBS once. […]

[2] = biological target: T1, nuclear membrane protein nucleoporin p62; assay: co-immunoprecipitation with anti-HA antibodies from transfected C1-1D cells, Western blot
Source text: To examine whether the in vitro complexing of GPBP with transcription factors also occurs in vivo, we performed a co-immunoprecipitation experiment using an HA-tagged mGPBP expression construct in mouse C1-1D cells. The hemagglutinin antigen (HA)-tagged (Field, 1988[2]) mGPBP eukaryotic expression construct pCDNAHA-mGPBP was generated by inserting the (HA) tag coding sequence upstream of, and in frame with, the mGPBP cDNA's ORF in pCDNA-mGPBP. Anti-HA antibodies were used to immunoprecipitate nuclear extract proteins derived from the transfected cells. As a control, nuclear extract from cells transfected with the HA expression vector containing no GPBP-encoding sequences underwent a similar immunoprecipitation procedure.

Row | Binder | binding result [1] | binding result [2]
1 | recombinant GST-mGPBP fusion protein (other, also called immobilized recombinant mGPBP; bead immobilized GST-mGPBP fusion proteins; not shown: N-terminal glutathione S-transferase (GST) carrier and the vector-encoded linker of pGEX-4T-1 between GST and the insert) MAQHDFAPAWLNFPTPPSSTKSSLNFEKHSENFSWTENRYDVSRRRHNSSDGFDSGIGRPNGGNFGRKEKNGWRTHGRNGTENINHRGGYHGGNSRSRSSIFHSGKSQGLHENSIPDNETGRKEDKRERRQFEAEDFPSLNPEYEREPNQNKSLAAGVWGLHAQTHTYPTKKISQAPLLDYPPNPKSRTPRMLVIKKGNTKDLQLSGFPVAGNLQSQPVKNGTSPSVYKGLVPKPAVPPTKPTQWKSQTKENKVGTSFSHESTYGVGNFNTFKSTAKNISPSTNSVKECNRSNSSSPVDKLNQQPRLTKLTRMRSDKKSEFLKALKRDRVEEEHEDESHAGSEKDDDSFNLHNSNTTHQERDINRNFDENEIPQENGNASIISQQIIRSSTFPQTDVLSSSLEAEHRLLKEMGWQEDSENDETCAPLTEDEMREFQVISEQLQKNGLRKNGILKNGLICDFKFGPWKNSTFKPTIENDDTETSSSDTSDDDDV | no binding | –
2 | HA-tagged mGPBP (other, Expressed from pCDNAHA-mGPBP in transfected mouse C1-1D cells; whole mGPBP ORF; also called HA-mGPBP; HA-tag fused to mGPBP; not shown: hemagglutinin antigen (HA) tag upstream of and in frame with the ORF) MAQHDFAPAWLNFPTPPSSTKSSLNFEKHSENFSWTENRYDVSRRRHNSSDGFDSGIGRPNGGNFGRKEKNGWRTHGRNGTENINHRGGYHGGNSRSRSSIFHSGKSQGLHENSIPDNETGRKEDKRERRQFEAEDFPSLNPEYEREPNQNKSLAAGVWGLHAQTHTYPTKKISQAPLLDYPPNPKSRTPRMLVIKKGNTKDLQLSGFPVAGNLQSQPVKNGTSPSVYKGLVPKPAVPPTKPTQWKSQTKENKVGTSFSHESTYGVGNFNTFKSTAKNISPSTNSVKECNRSNSSSPVDKLNQQPRLTKLTRMRSDKKSEFLKALKRDRVEEEHEDESHAGSEKDDDSFNLHNSNTTHQERDINRNFDENEIPQENGNASIISQQIIRSSTFPQTDVLSSSLEAEHRLLKEMGWQEDSENDETCAPLTEDEMREFQVISEQLQKNGLRKNGILKNGLICDFKFGPWKNSTFKPTIENDDTETSSSDTSDDDDV | – | no binding
